Experimental findings from a protein production outcome set (Wang et al. 2014) are described below.

This data set in a line: label from the status in PepcDB records.
As for “MMDSIAGPIQVLSRQFPNAQQGKGAALNHAFQIVLTDAEKGHYSWDQVLVGVVDADGFFSENIVNELTAVFTDTTVCAAQTRIKMKDVTNFMFIAQDVEFFTINNFIQKARRATKTIGLGGNGQFFRLSMITEHLGYQPWGNALLDDYELTIKLMLKELSIAYIDEAFMAQEALRDVKRFIRQRSRWVQGNLDCLAYLPRVIKSKSLTLRQKCGIYYFLAQPFINLVAGMLVFVLTGLQLQHLYRLGFSLSLVISFVLAVSISLVFGIFFTINYYRELKNFQLKVPAKLGLIILPFTISYMYLILFVSVVMAYYRFIKGNSTWIKTERN”, the protein production result is given as “failed”.

Regarding “MKEICMLLVAVILWGTAIAPTKWALESIQPFTLLFIRLFFAGGICMIFSFKELQKSVVHKKVPWKRMSLLAFTGVAGYFMFTSYGISLTSGLHVSIIDAALPLVTILFSALFLKEEIRLNYWIGIILGAIGVLFITIPSKSANQEVSLIGDILILLSTFLFAFYTVLLKRPKQEQYLSNEVFTTLTLIIGAVILLPFALVEIFYYGLPKVETWKTVLSVIYLVIGATILAYWFWNKALERVSASVSGLYLNALPLISIITSIILLNESLTWRVIMGASLVLIGVGWADKQKLCNLLKGNKVENRDC”, the protein production result is listed as “failed”.

For the sequence “MCKNSQYLHLPDEIPQQLMLLWESSDEVWGFKDLDSHYLYANNPFIELLNFPPEFCIKGLLDDELPHPSFAKFSSQFREQELLAAITKKRVSSIEMHYFGREQKLQPYLFDKFPLLNSKKECLGIIF”, the protein production entry was “failed”.

As for “MKVNKFITIYKDIAQQIEGGRWKAEEILPSEHELTAQYGTSRETVRKALHMLAQNGYIQKIRGKGSVVLNREKMQFPVSGLVSFKELAQTLGKETKTTVHKFGLEPPSELIQKQLRANLDDDIWEVIRSRKIDGEHVILDKDYFFRKHVPHLTKEICENSIYEYIEGELGLSISYAQKEIVAEPCTDEDRELLDLRGYDHMVVVRNYVFLEDTSLFQYTESRHRLDKFRFVDFARRGK”, the protein production entry was “not failed”.

As for “MWDETVAGPKPEHGLGRLRNKITTQPLDIKGVGEGSSSKTVAAVAGSPGTPTTPGSARKENVWRSVFHPGSNIATRGMGTNLFDKPSHPNSPTVYDWLYSDDTRSKHR”, the protein production result is on record as “failed”.

On to “MLDKNVLNEIGSKVNEILASSPARDVEKNMRAMLTGAFARLDLVTREEFDVQQEVIKRTRIKLAELEEKVRKLEQQLQQPAEVVSSNETGDA”, for which the protein production result is reported as “not failed”.

For the sequence “MTLAALCQGVLERLDPRQPGRQLVALSGAPGSGKSTLSNPLAAALSAQGLPAEVVPMDGFHLDNRLLEPRGLLPRKGAPETFDFEGFQRLCHALKHQERVIYPLFDRARDIAIAGAAEVGPECRVAIIEGNYLLFDAPGWRDLTAIWDVSIRLEVPMADLEARLVQRWLDHGLNHDAAVARAQGNDLANARAIEAARLPADLTWPQA”, the protein production result is “not failed”.

For “MPRYPVRPADHAQSAEGGVTAVDRALTLLTAFRVTDQTLSLSELSERASLVPSTVLRLLASLMHFGFVLRRPDGRYALGPAAARLNRVYAASFNLQDVVLPALQELVGQTRESASFHVRQGAHRLVLYRVSSPQPLSDQSHTGDLLPLDRGTGGHVLMAFSDTPGEFYEALRLRGYMASPVSDRSPELAGISAPVFDAQGMLAGALTLTMPVHRYKDAHIPVLREAAARLSAALGA”, the protein production entry was “failed”.

As for “MEYYFTAQKLAVGYDNRPLIENIDFSLKRGEILTLIGPNGAGKSTILKSIARQLSLVSGTIYLDKSDVVTMNGNEFAKKMAVVLTDKLKTELMTCYDVVATGRYPYTGRFGVLSDEDKKAVDEAMELVNVSQIKDKDFTKISDGQRQRVMLSRAICQQPEIIVLDEPTSYLDIKYKLEFLSILQRLKRQKNLTVIMSLHELDMAKRVSDHILCIDGRYVDRYGTPEEVFTDQYVSGLFGITAGSLEHHHHHH”, the protein production entry was “not failed”.

For “METQDHTLYVLLGPTGVGKTDLSLDIAERLGSPIISADSRQIFRELPIGTAAPTPEQRAKVPHLFVGTHSVRDYYSAGMYEVEVLEALKELFRKYRGVLLTGGSMMYIDAVCRGIDDIPDPFPEVREELYARYAAEGLDGILAQLRLLDPDYYAKVDRRNYKRVIHGLEICLSTGRPFSSFHRHEAKERPFRIVKIGLYREREELCKRIDARVLEMMEQGLEEEARAVYPLRHLNALNTVGYKEMFEYFDGSIDRAEAVRRIQRNSRVYARKQMTWFRRDSTIRWFHPEADKGTVLTLVT”, the protein production result was “failed”.

On to “MRLKKQLLGSLLVVIVVLSIAVATTKQQKGFVTGQPTGALNLSDILDSEELGEYHLMSAAIITGNTVDFSGLGAGPDDPFEIASITKIFTGELLRLQIERGEITESTAVGDVLGERVADSLIRDITVEELANHTSGLPRLGNVGLRPFMATFFDKNPYKDLSADRVISISTTSKLNSRGEFHYSNLGFALLGQVLARNAGLTFDQLLDRDLLAPLNLNNTKLMTPESLAQDAPQGFSTPGKQVEAWEMDGFLPAAGLRSTARDMAVFCQYLFTKGPAPFTWQSLESAPEIVWHNGESFGYSSVLFFNTATTTAIFVAADVATSVFPIGHELLMANSTRQESK”, for which the protein production result is listed as “failed”.

Regarding “MSLAHKFDPSKIKKLDDPSRLELFDPEKVLKEFGLKEGMTVLDVGTGAGFYLPYLSKMVGEKGKVYAIDVQEEMVNYAWEKVNKLGLKNVEVLKSEENKIPLPDNTVDFIFMAFTFHELSEPLKFLEELKRVAKPFAYLAIIDWKKEERDKGPPPEEVYSEWEVGLILEDAGIRVGRVVEVGKYCFGVYAMIVKQEEENPLMNVPFKIPPGEGHHHHHH”, the protein production entry is listed as “not failed”.

On to “MSITLITAAPGAGKTIFAVWNIIKPAVEADRVVYTAGIPELKLPAISLSYSQVKRWADRELVEVENPSGIPIPDDEKPSRLQNITEGALIVIDEVQYLWPASGSREPGEDIKYLTKHRHHGLEFVLITQAPQLIHKNVLAVVDKHIHMLSDWHGRKRYEWPEYCATVRATSSKLKAVSQRYELPKEAYGLYRSASMHI”, for which the protein production entry was “failed”.

Regarding “MLQSKVFKYSRWDIACCLVIPFQISVYALLAYYYQSMSLLALLGMIPVLFALSLQNAGANHNHYHTPFFRIRWMNTLTRMGFSATEAPKTPYNIGHGIHHATHQSWNDKSILAVLGLKRSIAQQLISFGLFIFESLGVKYFTLLVLLKYWPIERVAVLASPEDPVLAARALKKLLEPAKLKAAKYDLAAWFLFRLVLCVVDWQFFFFYFIPVTYLIDTLRQGENYFQHWGATDPNDPKRDSVSCYSTLYNLLTFNLGYHQEHHYKPGLHWLKLPELTKELPSDRHTVPYSHYLNSPLMFPERASQLRKENVADVSP”, the protein production result is reported as “failed”.

With “MVSAAGELGTLRQRAWAAAANVVDPEIPVLTIEDLGVLRDVTVSGDRIEVSITPTYSGCPAMTMIALEIELALAREGIAGAKITTVLSPAWTTDWMSDAGRRKLRDYGIAPPLSGGGRRALFGEQQVACPQCGSIATTVLSEFGSTSCKALWRCLDCREPFDYFKCH”, the protein production entry is given as “failed”.

Take “MTCRPALSDSHPPEPGTPSSPSFGVCGDRPLLRERGQHEVFCGLAGIIWLHRKIQDAFFLIIGSRTCAHLMQSAAGVMIFAEPRFATAVLEEQDLAGLADAQDEIDRVVARLLERRPDIRLLFLVGSCPSEVIKIDLQRAALRLSKVHGARTRVVSYSGSGLETTFTQGEDACLAALVPDLPSAAADEAPDLLVVGTLPDVVEDQFGRLFAEMGIARTAFLPPRRSTALPAIGPKTRFLLAQPFLGDTARCLEARGARRLAAPFPFGVEGTTGWLAAAAQAFGVDDLTFRRVTAPGRERAARALERQRATLEGKRVFFFPESQLEIPLARFLVRELGMEAIEIGTPYLHRAHLAEELALLPATALLSEGQDVDRQLDRCRAARPDLVVCGLGLANPLEAEGITTKWSIELVFSPIHGYEQAGDLAELFARPLLRRALLKV”: the protein production entry is listed as “failed”.

Take “MDIPQAIKYYEQACDLDGDYGCFNAAYFYEYGIGTQKDITQAKTLAKQLREKINLSNINLDKKVSERIIGSVYSNKLEAYRDLSFRPHFIQGLSFYFYAPQSDERKLLSRIGFDSSHLARIAILWAREGDPEVAYQTAKLVSTLYFNNETKTIDIAEALKWLRISAEKGDADSQTLLGFLYEHAGLGLQPDGEKARKWYEMAAQQGNGEALYTLGRMYYSGVLVNVDYDKALYFFKKAYEKKLQEAADYLAQMYFNGQSVDVDCQQSWHYYDNSYIKKMTQRDYLDYCEKDRKRRNDFNQQLPELTLEKYAGLFGRIDNIPLCQIGFVVNTNKLIHVANLRVELILKNDAGVSDERMVAFPPLGLNTLGAEQGMGDSFKSMGYLLMKNGDLCDYHKLTFTVKSATATINGKKVDLLKTDNLHIIQNR”: the protein production result is recorded as “failed”.

Turning to “LKVLTNKASVMLFMKGNKQEAKCGFSKQILEILNSTGVEYETFDILEDEEVRQGLKTFSNWPTYPQLYVRGDLVGGLDIVKELKDNGELLPILKGE”, the protein production result is listed as “not failed”.

As for “MLSELAKQFSTQIQTFFYLIMLINGLLHFIFAGAVARDAGNLYRLGQKPVLVSAPTWAFATLIGGVITATIYWLLHHSTLTRPTMREIRYDKA”, the protein production result is reported as “failed”.

Turning to “MFKNVKKSVTRTIASAMLLILLLSVATTGFAIFTLASSLNDAEAVNVAGSMRMQSYRLAHDIQIRSVDYSSHIDAFEHSIYSSSMKALQHWSVPEDITHDYYRLIMRWHELKSVLRGEDPSQYQLLVAGFVQQIDDFVFKLQNFSEQKLINLAWIGGLGLGGILCASMFVVHFIRLEVVRPLRALVFASERIKNRSFDINLAVSSDNEMGILTRTFNRMATDLGKLYRGLEQAVDEKTRKLQHANQSLEVLYDSSKELTASRINQDNFQAILKHIASLEGIKAVKLEIEQLGEPNWILTEGEECCHDCDDECHAEPLTLDGEHLGSLYWKAGLPCPNETLIDNFVQILSRAVYYNRAQRQAEQILLMEERATIARELHDSLAQALSYLKIQVALLKRSVKNLPDEKAIAQANQVIAELDTGLSAAYTQLRELLTTFRLTIKEGSFGQALQEMVETLNEQTTAEITLKNRLSSTELDAHQQVHLLQLIREAALNAIKHAQADHIHIQCLDCDGKVTVTVSDDGVGFEHQDEKINHYGMTIMQERAARLHADLQIEASINKGCTVKLEFQHSKEVNFDSV”, the protein production entry is reported as “failed”.

For the sequence “MTNGGGGMSSGEGFRRRSSGEGFPAREFRWWVSGDRVFPRGFFGEGVQVGVPTVVSGEGVPAKVPGGDFSGKKVPAVVFRRVSSSDGGGRGSGGGGGGGSGLGW”, the protein production result was “failed”.

As for “MPAFSLLPKPSALLPLLLAAAFLPPAFVHAEEEAAKDQPQAPVERPAVSERSQDEAKGLERQLPEDGQQILKAGDESFLTLWLPANTAEAEGVVILVPGDGESPDWPQAIGPLRRKLPDAGWQTLSLALPDPQSTAPVTRPAESAASASADKDASAADSASKPDVKGESGNAPAPESTAEAGSGEPAQSEDQAPPPAIDPVEQRKAHAERVMARLQASIDLALQHEPKSVVLLGHGTGAYWAARYLAEKEPAEIHNLLLVAAEVPRDFRPALEDMVPKLKLATGDFYYRDARADREAARLRMQAGKRQKHPAYVQIAMQALPADPKAEQEQLYRRIRGWLSLHLQADAQKPAE”, the protein production entry is reported as “failed”.

In the case of “MIDEPTGLYNRLRLQEDVSLRLQRDGALTVIAADLLPLALLNTIIRTLGYPFSNDLMLEARDRIRAELPDFTLYKISPTRFGLLLPRQQQEETESVCLRLLRAFESPVVCRGIPIKANVGLGVLPLADDTLDGDQDWLRLVVSAADDARDRGVGWARYNPPLDQAQQRLEHHHHHH”, the protein production entry is given as “not failed”.
